According to the domain aggregation screens of Martell et al. (2025):

Assay: soluble fraction after stress (log2 fold change); higher = more stays soluble; pooled small domains, quantitative proteomics
Conditions: stress: pH 4
In short: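 Small protein domains from pooled custom libraries were exposed to pH 4, then quantified with high-throughput quantitative proteomics. The fold change in how much of each domain remains soluble is read as aggregation propensity. It is given as log2, with higher values meaning more stayed soluble.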

| Sequence | soluble fraction (log2) |
| --- | --- |
| HMKDLQAISERMEEIISFAKANDNEISLFIVQDIIKNKKTGIDEDLLNMALYQIKEQGIKVLPA | -1.05 |
| HMSNSWSYSEFMKAVESGQVESVTISGQSIKGTSRGGQAFESVLPAFDDKLMDTLLVNDVEVIGEKP | -0.149 |
| HMNLGDSLFHARRKQGLSQEAVAEQLGVSRQTVSKWEANETLPDIRQSKLMAKLYHTSLDELI | 0.138 |
| HMIMTHSALLEKDGFDIVKVHFERPNDDGFDFLDMTLPGEIVYKSFGFSEDEILKLKRYAKNNSSLIWDF | -1.87 |
| HMGSEYILTIIPTPADATVFINGVKKNSASGVNGQILSWEVTKEGYIPQSGTFTINGKNETIEVVLQPQT | -0.577 |
| HMVTEKPLYRDELMDHDTVWVEPISMDSHLRMELRGWYHVKNRFVENEVGQRFYFDFYDIKWLAFTNGP | ≥ 0.43 |
| HMENYYMPVVAGQSEQDAKSMLNAMKLSLSIQVQEQESDSVAKGLAIGTSPAAGSQIRKGSSVILYISKGA | 0.16 |
| HMNREDYIKAIFKIAEREGEASNQRIADSLGVSRASASEMVKKLIQEGFVVAEGRQLSLSAEGERIA | -0.32 |
| HMRESLSEAERHPRYLEGEDVVRMFLLMGDLSRVEAEVIALQWNAQEADRVGLPQDAKVFRTRAR | -0.417 |
| HMSHFRMLPSITEADAFLKSRSLPAGLEVREQVDAFLAQARQTLALAQEAPWLSKQEVLETLADEFVQTS | -1.25 |
| HMQENDLGAVEKIVDDVLHDPKNAQAVADFKAGSEKVLGFLTGQVMKASRGKANPSVVQEVLRQKLKN | -0.0461 |
| HMSHGFVHLKGAVQHPGIYPVKENTRWDEVVKAAGGLTAAADIQQVNLAKVASDQESLYVPEKGET | 0.161 |
| HMNGYGALVRLGRSRGWVTVEEINDHLPESAVRTAENVQEITEALGRLSIKVFETRPDEDDLLIT | -0.613 |
| HMILALAISSEEDDARIYATYADRLREAYPASARVFEGMVDEEHEHRRRLIDLFQRRFGDTIPLVRREHV | -0.836 |
| HMKEPFETMPDVMDAKQIAEALQISKAGAYNLLNSPDFPTLRIGGRKLVMKNELVEWLKSHTNRK | 0.126 |
| HMDIYKKFIIPATYFGSRLDHVLSELLPELSRSKIQNMIKQNLVMINGNHAAQKQKVVGDEEIIIKDI | -0.089 |
| HMEKTTTLFDETTNPGIIYIGKAMPTGSAISEAAAVWAIKTIDTTTDTEIKWADGVTTYTKVWNNRASYSY | -1.35 |
| HMRAKPLILLDGREISAEELFSLDKNSIKSIEVLKDETALAQYGEKAKNGVVLVVTKSAAAS | 0.0982 |
| HMKVSDPEAIKLIEQAQVKVIPFLDISEAADIQIALEELKNSEGTGQTDSAKVRLRNLLSPFSYL | -1.12 |
| HMDIPTSAEAVRAYLASGFIKGIGEATARMLVDKFGAETLEIIKTEPMKLTKISGIGPKKAKMIHESYLEK | -0.0191 |
| HMVENATPEEREALNDIAMEAMGMVKDGKPTSAREFVQSQNLDNDQKILLWSLLDAPTRSALKTAEK | 0.299 |
| HMNKVQTFIIEKHIKEVFEHTNRTYYRSGQYYFQTRDEFSMALKRFLKDREPNKKNWIDSIINRA | 0.195 |
| HMGPEVQLAYSEFLAKVKVGEVNDVMVKGNEIHGHFSDGRTFSTYSPNDPDLVEKLNKNKVMIKAAPP | -0.0878 |
| HMPKPMKATKITLQQEPRIRVDFTYDPLKVQQIKTISGARWSKSLKAWHIPYTKEAFNQLKKLFPNVEIEV | 0.22 |
| HMTVAEVEDRMEASRVRQALDAVGEPHRTTIALAYFTGLTHTEIAQRMGVPLGTVKSRIRDGMAKMRTHLG | -0.172 |
| HMDFDQELFDKIVEATMDEARAAMDTDDKNVREERWNKLIEHWHELFLEDYPEMDKYLEEITYKFQKNPAT | -1.23 |
| HMNHGDATTETQAEIMAILSDMKPHPITELNTIKRPYEQIDTALTYLINEEKIYRMDGMIFIG | -0.915 |
| HMALKRVAPQGEDKLSAQLDGVEFDKLIPWLGMLEHDHRIAIVNLSIDRANATGLVNARVIL | 0.251 |

| Sequence | soluble fraction (log2) |
| --- | --- |
| HMAVTKVKVITESSNLNIRKGPGTDQPIVGKAAHHEIITLVNKSNDQWWLVRTNDGEEGYSYSRYLEPVT | -0.153 |
| HMVDKNDLTAIDGIGPFLEKKLNDVGVFTYADIAGWDAAKIEEITQQISFFEGRIEKDDWVGQAQKLIDDQ | -0.704 |
| HMEPTAEQLKAIRQFASVNGRSWKSELRYLWETGAYHRAALGGADPGYLQQVRNQFGPGWLRAFKISK | -0.113 |
| HMNEDYFTIAGYASLRGVNIDTSKANMLGRKATKLSREYGYDIGKVTDTRFGKVNSYHLDILKSIFEF | -0.646 |
| HMDNITIYSSNGKIYVNAIGGEKIELFNITGQKVAEKVAVSGINVLDAVYDITLVKVGSKVVKVV | -1.41 |
| HMTGRHEEAIQELKRTLELHPQKPKIFLLLGVSYLRLNNLKKAVEAFNTVLLLQPKNQKALTMLKEIKKR | -0.113 |
| HMGRRDLSWQPAAGGVSIDGLKAGEAWTLFGLNGRILKQGYAPEGQMSLAVNAGLFVLRGAESGVIRIAVA | -0.255 |
| HMNGARALAGAIAEAIRKQVYRVNERLPAERELASHYDVSRGTLRSALALLEQEGLVTRKVGSGTFVMPP | 0.161 |
| HMGKKIVERRNTILNMVNKYGTLDFPQLRDAFPDVSDVTLRKDLQYLDSTKQAIRTHGGIKSI | -0.00897 |
| HMSVKVFRDQILLNNDSDKMLQLSFSNLFGQKVLETSISPGKSAISTGNLPPGIYFITTSPATGVMRVII | -0.544 |
| HMNPVVATTIILDGEIIKDNLAEANLSEEWLLEELKRQNFNDVKEVFYAEWLDGKQLFAYPYTK | -0.789 |
| HMDVAAQITYAMRTMGVAPIPRNYELFYEAYIGSNPALTKELAALGSKATQEELDELGQQYF | -1.43 |
| HMQSYSYYDFQKALQNKTVESVIIEPDKTVPTGTLQIQLKGDTKEELNVSDVTEVEELLQSYDVDYKLRSV | 0.0751 |
| HMGTKDVNAAPSAVGRTYDEAIEILNGYKAGYLEEYSDTVPKGTVISQSVQDGQVVIVVSLGPKPS | -0.18 |
| HMKGAADPAIKQKVLDYLDTVEKAKSKEIAKAISEEKSAVDLAVKELAFEDKVEYLYITTTFVALKGKVA | -0.865 |
| HMGTVKWFNATKGFGFIVPSDGGKDVFVHITAVQKAGLQGLNEGQKVSYEVAMERGKAAATNLR | -0.259 |
| HMDVQTVTVIENVNVRKSASENGQKLGLAYTGEKLELLMKQADGWTRVKYNGETAYVKSDYV | -0.0843 |
| HMLSRTYDSSGPDVKIRGTAQTVADKYMSLARDAQSSGDRVMAENYLQHAEHYNRIIAAAQAQ | 0.221 |
| HMDAMMQRLERLKELASSADGSKDYLILGPLRRDLAKLMALEDPKLRQGAEELDRKILAILS | -0.437 |
| HMAKRYFVTTGVRVRTKPDTANSEVLTVLDEGSEIDYKGDYNNEWVKINYNGQEAYIAKQYVRSEE | -0.13 |
| HMIEDMQQWIRQIREIVSNRLDLTRNISDDEIREVISDIVMEQSRQQYMSLNEKKTLMEGVFNSMR | -0.977 |
| HMIIIMKMGADESQVQETIKRIKDLGFNTHLSKGENRTIIGVIGDVSSIDESDVERLRATPYIAEVVRVS | 0.417 |
| HMKIEEVIEKLKTDSIISRKEYEDIVRQINPNLSDRTIFWQLAKLQDMGVLQKIGQNSFHVRN | 0.0251 |
| HMKRYLFEEVLAFLKHNDGKSFNYKQLGAAMEIDNESDRFALLETLEELKHQGFVIETDIGKYAAKE | -0.322 |
| HMSSEPYISLPRGAAHDAYPLSTKAVAAQLGMSEVWLANLRSKGKGPRYVRVGTRVFYSPEDVAQWRRAT | ≥ 0.43 |
| HMGQGEISVPRLEGLSLRETSELLGLFGLRLEAAGSGIALSQNPPAGARVKAGDVIQVDFGEPGN | 0.0931 |
| HMLINLGPRIRKERRSKGISQSDFSKNLGISASYLNLLENGRRTLTVPLLIKIGNELNLSLKDL | 0.113 |
